Laboratory results: patent CN101300273A

What was measured:
人肿瘤细胞上的TR-2 (human) [1] = molecular target: 人肿瘤细胞上的TR-2 (human) (UniProt O14763); test: cell-based assay, 10 μg/ml M412, anti-mouse IgG Fc-HRP, isotype control subtracted; melanoma line RPMI 7951
人肿瘤细胞上的TR-2 (human) [2] = molecular target: 人肿瘤细胞上的TR-2 (human) (UniProt O14763); test: cell-based assay, 10 μg/ml M412, anti-mouse IgG Fc-HRP, isotype control subtracted; colon cancer line HCT-116
人肿瘤细胞上的TR-2 (human) [3] = molecular target: 人肿瘤细胞上的TR-2 (human) (UniProt O14763); test: cell-based assay, 10 μg/ml M412, anti-mouse IgG Fc-HRP, isotype control subtracted; non-small cell lung cancer line NCI-H2126
人肿瘤细胞上的TR-2 (human) [4] = molecular target: 人肿瘤细胞上的TR-2 (human) (UniProt O14763); test: cell-based assay, 10 μg/ml M412, anti-mouse IgG Fc-HRP, isotype control subtracted; kidney cancer line Caki-2
人肿瘤细胞上的TR-2 (human) [5] = molecular target: 人肿瘤细胞上的TR-2 (human) (UniProt O14763); test: cell-based assay, 10 μg/ml M412, anti-mouse IgG Fc-HRP, isotype control subtracted; breast cancer line HS 578.T
人肿瘤细胞上的TR-2 (human) [6] = molecular target: 人肿瘤细胞上的TR-2 (human) (UniProt O14763); test: cell-based or functional assay
人肿瘤细胞上的TR-2 (human) [7] = molecular target: 人肿瘤细胞上的TR-2 (human) (UniProt O14763); test: cell-based assay, 10 μg/ml M412, anti-mouse IgG Fc-HRP, isotype control subtracted; kidney cancer line UO-31
人肿瘤细胞上的TR-2 (human) [8] = molecular target: 人肿瘤细胞上的TR-2 (human) (UniProt O14763); test: cell-based assay, 10 μg/ml M412, anti-mouse IgG Fc-HRP, isotype control subtracted; line A 673 (listed under leukemia)
人肿瘤细胞上的TR-2 (human) [9] = molecular target: 人肿瘤细胞上的TR-2 (human) (UniProt O14763); test: cell-based assay, 10 μg/ml M412, anti-mouse IgG Fc-HRP, isotype control subtracted; CNS cancer line U251
人肿瘤细胞上的TR-2 (human) [10] = molecular target: 人肿瘤细胞上的TR-2 (human) (UniProt O14763); test: cell-based assay, 10 μg/ml M412, anti-mouse IgG Fc-HRP, isotype control subtracted; non-small cell lung cancer line HOP-62 (second mention)
人肿瘤细胞上的TR-2 (human) [11] = molecular target: 人肿瘤细胞上的TR-2 (human) (UniProt O14763); test: cell-based assay, 10 μg/ml M412, anti-mouse IgG Fc-HRP, isotype control subtracted; colon cancer line SW-707
人肿瘤细胞上的TR-2 (human) [12] = molecular target: 人肿瘤细胞上的TR-2 (human) (UniProt O14763); test: cell-based assay, 10 μg/ml M412, anti-mouse IgG Fc-HRP, isotype control subtracted; melanoma line UACC-62
人肿瘤细胞上的TR-2 (human) [13] = molecular target: 人肿瘤细胞上的TR-2 (human) (UniProt O14763); test: cell-based assay, 10 μg/ml M412, anti-mouse IgG Fc-HRP, isotype control subtracted; non-small cell lung cancer line HOP-62 (first mention)
人肿瘤细胞上的TR-2 (human) [14] = molecular target: 人肿瘤细胞上的TR-2 (human) (UniProt O14763); test: cell-based assay, 10 μg/ml M412, anti-mouse IgG Fc-HRP, isotype control subtracted; lung cancer line A549
人肿瘤细胞上的TR-2 (human) [15] = molecular target: 人肿瘤细胞上的TR-2 (human) (UniProt O14763); test: cell-based assay, 10 μg/ml M412, anti-mouse IgG Fc-HRP, isotype control subtracted; CNS cancer line SF-295
人肿瘤细胞上的TR-2 (human) [16] = molecular target: 人肿瘤细胞上的TR-2 (human) (UniProt O14763); test: cell-based assay, 10 μg/ml M412, anti-mouse IgG Fc-HRP, isotype control subtracted; breast cancer line T-47D
人肿瘤细胞上的TR-2 (human) [17] = molecular target: 人肿瘤细胞上的TR-2 (human) (UniProt O14763); test: cell-based assay, 10 μg/ml M412, anti-mouse IgG Fc-HRP, isotype control subtracted; colon cancer line HCC-2998
人肿瘤细胞上的TR-2 (human) [18] = molecular target: 人肿瘤细胞上的TR-2 (human) (UniProt O14763); test: cell-based assay, 10 μg/ml M412, anti-mouse IgG Fc-HRP, isotype control subtracted; kidney cancer line Caki-1
人肿瘤细胞上的TR-2 (human) [19] = molecular target: 人肿瘤细胞上的TR-2 (human) (UniProt O14763); test: cell-based assay, 10 μg/ml M412, anti-mouse IgG Fc-HRP, isotype control subtracted; colon cancer line HT-29
人肿瘤细胞上的TR-2 (human) [20] = molecular target: 人肿瘤细胞上的TR-2 (human) (UniProt O14763); test: cell-based assay, 10 μg/ml M412, anti-mouse IgG Fc-HRP, isotype control subtracted; liver cancer line NCI-SNU-1
人肿瘤细胞上的TR-2 (human) [21] = molecular target: 人肿瘤细胞上的TR-2 (human) (UniProt O14763); test: cell-based assay, 10 μg/ml M412, anti-mouse IgG Fc-HRP, isotype control subtracted; melanoma line LOX IMVI
人肿瘤细胞上的TR-2 (human) [22] = molecular target: 人肿瘤细胞上的TR-2 (human) (UniProt O14763); test: cell-based assay, 10 μg/ml M412, anti-mouse IgG Fc-HRP, isotype control subtracted; non-small cell lung cancer line NCI-H460
人肿瘤细胞上的TR-2 (human) [23] = molecular target: 人肿瘤细胞上的TR-2 (human) (UniProt O14763); test: cell-based assay, 10 μg/ml M412, anti-mouse IgG Fc-HRP, isotype control subtracted; ovarian cancer line IGROV1
人肿瘤细胞上的TR-2 (human) [24] = molecular target: 人肿瘤细胞上的TR-2 (human) (UniProt O14763); test: cell-based assay, 10 μg/ml M412, anti-mouse IgG Fc-HRP, isotype control subtracted; prostate cancer line LNCaP
人肿瘤细胞上的TR-2 (human) [25] = molecular target: 人肿瘤细胞上的TR-2 (human) (UniProt O14763); test: cell-based assay, 10 μg/ml M412, anti-mouse IgG Fc-HRP, isotype control subtracted; colon cancer line KM-12
人肿瘤细胞上的TR-2 (human) [26] = molecular target: 人肿瘤细胞上的TR-2 (human) (UniProt O14763); test: cell-based assay, 10 μg/ml M412, anti-mouse IgG Fc-HRP, isotype control subtracted; prostate cancer line 22Rv1
人肿瘤细胞上的TR-2 (human) [27] = molecular target: 人肿瘤细胞上的TR-2 (human) (UniProt O14763); test: cell-based assay, 10 μg/ml M412, anti-mouse IgG Fc-HRP, isotype control subtracted; prostate cancer line DU 145
人肿瘤细胞上的TR-2 (human) [28] = molecular target: 人肿瘤细胞上的TR-2 (human) (UniProt O14763); test: cell-based assay, 10 μg/ml M412, anti-mouse IgG Fc-HRP, isotype control subtracted; colon cancer line SW-948
人肿瘤细胞上的TR-2 (human) [29] = molecular target: 人肿瘤细胞上的TR-2 (human) (UniProt O14763); test: cell-based assay, 10 μg/ml M412, anti-mouse IgG Fc-HRP, isotype control subtracted; breast cancer line MDA-MB-231
人肿瘤细胞上的TR-2 (human) [30] = molecular target: 人肿瘤细胞上的TR-2 (human) (UniProt O14763); test: cell-based assay, 10 μg/ml M412, anti-mouse IgG Fc-HRP, isotype control subtracted; kidney cancer line SN12C

Sequence of UniProt O14763 (O14763 56-440): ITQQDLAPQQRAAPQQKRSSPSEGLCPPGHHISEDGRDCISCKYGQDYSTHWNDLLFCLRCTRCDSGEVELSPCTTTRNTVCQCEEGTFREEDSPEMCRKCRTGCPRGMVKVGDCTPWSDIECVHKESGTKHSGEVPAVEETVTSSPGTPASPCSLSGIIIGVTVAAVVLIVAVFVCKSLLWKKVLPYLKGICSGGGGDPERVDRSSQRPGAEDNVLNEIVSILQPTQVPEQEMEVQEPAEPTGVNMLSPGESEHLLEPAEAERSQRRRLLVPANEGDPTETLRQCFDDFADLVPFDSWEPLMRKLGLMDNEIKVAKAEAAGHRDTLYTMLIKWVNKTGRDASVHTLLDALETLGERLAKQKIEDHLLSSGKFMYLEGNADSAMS

B1: 小鼠抗TR-2抗体M412 (antibody, mouse IgG1, V domains shown)
VH: KVQLQQSGTELVKPGASVKLSCKASGYTFTEYIIHWVKQRSGQGLEWIGWFYPGSGYIKYNEKFKDKATMTADKSSSTVYMELSRLTSEDSAVYFCTRHEEDGYYAAYWGQGTLVTVSA
VL: DIVMTQSHKFMSTSVGDRVSITCKASQDVSSAVAWYQQKPGQSPKLLIYWASTRHTGVPDRFTGSGSGTDYTLTISSVQAEDLALYYCQQHYSTPYTFGGGTKLEIKR
OD450nm (人肿瘤细胞上的TR-2 (human) [1]): 0.322 OD450 | OD450nm (人肿瘤细胞上的TR-2 (human) [2]): 0.41 OD450 | OD450nm (人肿瘤细胞上的TR-2 (human) [3]): 0.501 OD450 | OD450nm (人肿瘤细胞上的TR-2 (human) [4]): 0.443 OD450 | OD450nm (人肿瘤细胞上的TR-2 (human) [5]): 0.403 OD450 | ED50 (细胞存活减少50%, 3H-胸苷掺入), COLO 205细胞 (人肿瘤细胞上的TR-2 (human) [6]): 1.85 µg/mL | ED50 (细胞存活减少50%, 3H-胸苷掺入), MDA-231细胞 (人肿瘤细胞上的TR-2 (human) [6]): 0.6 µg/mL | ED50 (细胞存活减少50%, 3H-胸苷掺入), WM35细胞 (人肿瘤细胞上的TR-2 (human) [6]): 1.85 µg/mL | ED50 (细胞存活减少50%, 3H-胸苷掺入), WM793细胞 (人肿瘤细胞上的TR-2 (human) [6]): 1.85 µg/mL | OD450nm (人肿瘤细胞上的TR-2 (human) [7]): 0.331 OD450 | OD450nm (人肿瘤细胞上的TR-2 (human) [8]): 0.347 OD450 | OD450nm (人肿瘤细胞上的TR-2 (human) [9]): 0.323 OD450 | OD450nm (人肿瘤细胞上的TR-2 (human) [10]): 0.47 OD450 | OD450nm (人肿瘤细胞上的TR-2 (human) [11]): 0.323 OD450 | OD450nm (人肿瘤细胞上的TR-2 (human) [12]): 0.319 OD450 | OD450nm (人肿瘤细胞上的TR-2 (human) [13]): 0.313 OD450 | OD450nm (人肿瘤细胞上的TR-2 (human) [14]): 0.381 OD450 | OD450nm (人肿瘤细胞上的TR-2 (human) [15]): 0.354 OD450 | OD450nm (人肿瘤细胞上的TR-2 (human) [16]): 0.366 OD450 | OD450nm (人肿瘤细胞上的TR-2 (human) [17]): 0.635 OD450 | OD450nm (人肿瘤细胞上的TR-2 (human) [18]): 0.93 OD450 | OD450nm (人肿瘤细胞上的TR-2 (human) [19]): 0.869 OD450 | OD450nm (人肿瘤细胞上的TR-2 (human) [20]): 0.354 OD450 | OD450nm (人肿瘤细胞上的TR-2 (human) [21]): 0.573 OD450 | OD450nm (人肿瘤细胞上的TR-2 (human) [22]): 0.326 OD450 | OD450nm (人肿瘤细胞上的TR-2 (human) [23]): 0.312 OD450 | OD450nm (人肿瘤细胞上的TR-2 (human) [24]): 0.63 OD450 | OD450nm (人肿瘤细胞上的TR-2 (human) [25]): 0.77 OD450 | OD450nm (人肿瘤细胞上的TR-2 (human) [26]): 0.301 OD450 | OD450nm (人肿瘤细胞上的TR-2 (human) [27]): 0.372 OD450 | OD450nm (人肿瘤细胞上的TR-2 (human) [28]): 0.423 OD450 | OD450nm (人肿瘤细胞上的TR-2 (human) [29]): 0.408 OD450 | OD450nm (人肿瘤细胞上的TR-2 (human) [30]): 0.313 OD450
